Data: article PMC7793685
Numbering of substitutions follows the chain as printed.

Columns and labels:
[1] = test system: T1, MBP-MogR (Bacillus thuringiensis 407), ORF:ee0ae10c; experiment: EMSA
T1 sequence: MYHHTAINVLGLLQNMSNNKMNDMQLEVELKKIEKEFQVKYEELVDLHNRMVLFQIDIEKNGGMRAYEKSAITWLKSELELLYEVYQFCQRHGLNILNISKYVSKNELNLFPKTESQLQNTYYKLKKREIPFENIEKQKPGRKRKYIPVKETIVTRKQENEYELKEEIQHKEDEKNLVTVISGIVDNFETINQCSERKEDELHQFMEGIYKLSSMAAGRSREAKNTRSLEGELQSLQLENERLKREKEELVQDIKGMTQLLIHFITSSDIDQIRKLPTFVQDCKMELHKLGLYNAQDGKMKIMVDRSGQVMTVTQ

[2] = test system: T2, MBP-MogRQN→AA Q119A;N120A (Bacillus thuringiensis 407), ORF:ee0ae10c; experiment: EMSA
T2 sequence: T1 sequence with Q119A, N120A

Sequence | binding [1] | binding [2]
TTACAGAAATGAAATTTACGGATAACTATATTTATATAATTTTTTCGGTTCATATTTTTATTTAACAGTAAATTATCGATCGTAATCGACAAAATTTTTCTATTTACGCATTAAAAATTTAATGTTTTAATGAACAACATAACTGGTATGACCAGACAGAAAGGATAAGG (double strand) [hbl promoter fragment] | binds | –
CAACTATCATAATATCACCTTTTCGGTAAACAAAGATAATCTAATATTAGAGTTTTTTTTTAAAGTTTGCAATAATCCTTTTAATAATTATGTAATAAAAAATGAATATATTGTTAAACTGTTATTTTTTTATATTTATTAATTCGAATTTTTAGTTGACACCCG (double strand) [fla promoter fragment] | binds | no binding
